# Assay results as given in paper PMC4814574.
# B1: G-CSF receptor promoter C/EBP site oligonucleotide (dsDNA)
# DNA 1: CTAGGGCTTGCGCAATCTATATTCG
# DNA 2: CGAATATAGATTGCGCAAGCCCTA
# Molecular target: C/EBPα WT (ivt) (human, UniProt P49715 1-358)
# Assay: EMSA; supershift by C/EBPα antibody; 10 mM HEPES-KOH pH 7.9, 50 mM KCl, 2.5 mM MgCl2, 1 mM DTT, 10% glycerol, 1 ug BSA, 0.5 ug poly(dI-dC), 25 ul, on ice 20 min; 6% gel, 0.5x TBE, 4 °C
# Chain of C/EBPα WT (ivt) (P49715 whole entry): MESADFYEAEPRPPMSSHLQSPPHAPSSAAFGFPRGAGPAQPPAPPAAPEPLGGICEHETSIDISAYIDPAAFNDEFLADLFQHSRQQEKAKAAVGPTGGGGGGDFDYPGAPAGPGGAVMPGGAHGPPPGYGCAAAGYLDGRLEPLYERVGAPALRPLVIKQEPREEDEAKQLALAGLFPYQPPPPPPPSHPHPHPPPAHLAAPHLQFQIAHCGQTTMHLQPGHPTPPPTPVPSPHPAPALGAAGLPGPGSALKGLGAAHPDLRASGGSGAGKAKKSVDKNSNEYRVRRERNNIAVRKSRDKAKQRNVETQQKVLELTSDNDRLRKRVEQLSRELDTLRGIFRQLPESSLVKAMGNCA
binder,measurement,value
B1,binding result,binds
